Experimental data reported in US6162627, “Methods of identifying inhibitors of sensor histidine kinases through rational drug design” (University of Medicine and Dentistry of New Jersey, dated 2000).

B1: EnvZ(C)(290-450) (enzyme)
chain: TGQEMPMEMADLNAVLGEVIAAESGYEREIETALYPGSIEVKMHPLSIKRAVANMVVNAARYGNGWIKVSSGTEPNRAWFQVEDDGPGIAPEQRKHLFQPFVRGDSARTISGTGLGLAIVQRIVDNHNGMLELGTSERGGLSIRAWLPVPVTRAQGTTKEG

Experiments:
[1] = target: EnvZ(C)(223-289) (Escherichia coli)
[2] = target: the molecule itself; experiment: gel filtration (21.6 kDa) and dynamic light scattering (26.5 kDa) against a calculated molecular weight of 17.6 kDa

Row | Molecule | phosphorylation activity on sub-domain A against that of H6-EnvZ(C)H1 [1] | binding result [2]
1 | EnvZ(C)(290-450) (enzyme) | 5% | –
2 | B1 | – | no binding
